Molecular target: DH-CRBN (human) (UniProt Q96SW2)
Assay: split reporter
Design: unit not given beside the values

AUC of the growth curve with pomalidomide	AUC of the growth curve without compound (DMSO)	Substance
5130	3220	CHD8 full domain (FD) (from UniProt Q9HCK8 1-2581) (domain or fragment)
2800	1780	SPART FD (from UniProt Q8N0X7 1-666) (domain or fragment)
